Assay results: paper PMC7469494 (Autophagy, 2019)
Each block holds one binder with its values, some of them ahead of it.

B2: Vac8[40–515] (domain or fragment, S. cerevisiae, UniProt P39968 40-515, looked up)
chain: QLDFYSGGPLKALTTLVYSDNLNLQRSAALAFAEITEKYVRQVSREVLEPILILLQSQDPQIQVAACAALGNLAVNNENKLLIVEMGGLEPLINQMMGDNVEVQCNAVGCITNLATRDDNKHKIATSGALIPLTKLAKSKHIRVQRNATGALLNMTHSEENRKELVNAGAVPVLVSLLSSTDPDVQYYCTTALSNIAVDEANRKKLAQTEPRLVSKLVSLMDSPSSRVKCQATLALRNLASDTSYQLEIVRAGGLPHLVKLIQSDSIPLVLASVACIRNISIHPLNEGLIVDAGFLKPLVRLLDYKDSEEIQCHAVSTLRNLAASSEKNRKEFFESGAVEKCKELALDSPVSVQSEISACFAILALADVSKLDLLEANILDALIPMTFSQNQEVSGNAAAALANLCSRVNNYTKIIEAWDRPNEGIRGFLIRFLKSDYATFEHIALWTILQLLESHNDKVEDLVKNDDDIINGVRK
B3: Vac8[40–515]^N62R (domain or fragment, S. cerevisiae, UniProt P39968 40-515, looked up)
chain: QLDFYSGGPLKALTTLVYSDNLRLQRSAALAFAEITEKYVRQVSREVLEPILILLQSQDPQIQVAACAALGNLAVNNENKLLIVEMGGLEPLINQMMGDNVEVQCNAVGCITNLATRDDNKHKIATSGALIPLTKLAKSKHIRVQRNATGALLNMTHSEENRKELVNAGAVPVLVSLLSSTDPDVQYYCTTALSNIAVDEANRKKLAQTEPRLVSKLVSLMDSPSSRVKCQATLALRNLASDTSYQLEIVRAGGLPHLVKLIQSDSIPLVLASVACIRNISIHPLNEGLIVDAGFLKPLVRLLDYKDSEEIQCHAVSTLRNLAASSEKNRKEFFESGAVEKCKELALDSPVSVQSEISACFAILALADVSKLDLLEANILDALIPMTFSQNQEVSGNAAAALANLCSRVNNYTKIIEAWDRPNEGIRGFLIRFLKSDYATFEHIALWTILQLLESHNDKVEDLVKNDDDIINGVRK
B4: Vac8[40–515]^N60R,N62R (domain or fragment, S. cerevisiae, UniProt P39968 40-515, looked up)
chain: QLDFYSGGPLKALTTLVYSDRLRLQRSAALAFAEITEKYVRQVSREVLEPILILLQSQDPQIQVAACAALGNLAVNNENKLLIVEMGGLEPLINQMMGDNVEVQCNAVGCITNLATRDDNKHKIATSGALIPLTKLAKSKHIRVQRNATGALLNMTHSEENRKELVNAGAVPVLVSLLSSTDPDVQYYCTTALSNIAVDEANRKKLAQTEPRLVSKLVSLMDSPSSRVKCQATLALRNLASDTSYQLEIVRAGGLPHLVKLIQSDSIPLVLASVACIRNISIHPLNEGLIVDAGFLKPLVRLLDYKDSEEIQCHAVSTLRNLAASSEKNRKEFFESGAVEKCKELALDSPVSVQSEISACFAILALADVSKLDLLEANILDALIPMTFSQNQEVSGNAAAALANLCSRVNNYTKIIEAWDRPNEGIRGFLIRFLKSDYATFEHIALWTILQLLESHNDKVEDLVKNDDDIINGVRK

How the values were obtained:
[1] = molecular target: the molecule itself; experiment: AUC
[2] = molecular target: the molecule itself; experiment: SEC
[3] = molecular target: the molecule itself; experiment: SEC; remark: listed apart in the source
[4] = molecular target: B4; experiment: SEC
[5] = molecular target: B3; experiment: SEC
[6] = molecular target: T1, Vac8[40–515]^A51R (S. cerevisiae, UniProt P39968 40-515, A51R); experiment: cross-linking
T1 sequence (looked up): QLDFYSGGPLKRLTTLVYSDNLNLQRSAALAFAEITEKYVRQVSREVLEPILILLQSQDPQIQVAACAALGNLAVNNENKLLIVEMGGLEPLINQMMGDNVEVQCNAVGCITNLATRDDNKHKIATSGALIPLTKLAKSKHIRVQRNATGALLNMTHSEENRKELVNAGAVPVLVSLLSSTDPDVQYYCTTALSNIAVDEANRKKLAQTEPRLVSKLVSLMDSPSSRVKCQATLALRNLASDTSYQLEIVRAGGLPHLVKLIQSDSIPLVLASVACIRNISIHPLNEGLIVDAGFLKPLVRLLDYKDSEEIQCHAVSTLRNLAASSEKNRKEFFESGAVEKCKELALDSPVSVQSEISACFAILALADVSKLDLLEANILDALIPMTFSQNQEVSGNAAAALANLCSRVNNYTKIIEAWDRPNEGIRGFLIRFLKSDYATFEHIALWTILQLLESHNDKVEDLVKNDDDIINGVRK

[7] = molecular target: B2; experiment: cross-linking
[8] = molecular target: T2, Vac8[40–578] (S. cerevisiae, UniProt P39968 40-578); experiment: SAXS
T2 sequence (looked up): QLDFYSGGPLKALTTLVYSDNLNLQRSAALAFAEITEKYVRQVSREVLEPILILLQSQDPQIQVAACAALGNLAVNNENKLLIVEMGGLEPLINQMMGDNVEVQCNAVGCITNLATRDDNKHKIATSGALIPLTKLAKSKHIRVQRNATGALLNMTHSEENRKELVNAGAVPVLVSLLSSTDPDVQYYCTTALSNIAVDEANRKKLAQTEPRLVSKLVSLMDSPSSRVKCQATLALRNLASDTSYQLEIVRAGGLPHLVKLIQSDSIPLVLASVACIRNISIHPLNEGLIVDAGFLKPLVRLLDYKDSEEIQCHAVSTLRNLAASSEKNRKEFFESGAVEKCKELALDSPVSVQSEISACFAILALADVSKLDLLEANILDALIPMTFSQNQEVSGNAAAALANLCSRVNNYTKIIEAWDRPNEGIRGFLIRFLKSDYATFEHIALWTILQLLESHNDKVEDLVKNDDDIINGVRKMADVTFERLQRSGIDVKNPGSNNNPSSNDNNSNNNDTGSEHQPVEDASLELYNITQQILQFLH

B1: Vac8[Δ19–33] (full-length Vac8 lacking the H1 helix, residues 19–33) (natural protein, S. cerevisiae, UniProt P39968 1-578, looked up)
chain: MGSCCSCLKDSSDEASVSYLEDKDQLDFYSGGPLKALTTLVYSDNLNLQRSAALAFAEITEKYVRQVSREVLEPILILLQSQDPQIQVAACAALGNLAVNNENKLLIVEMGGLEPLINQMMGDNVEVQCNAVGCITNLATRDDNKHKIATSGALIPLTKLAKSKHIRVQRNATGALLNMTHSEENRKELVNAGAVPVLVSLLSSTDPDVQYYCTTALSNIAVDEANRKKLAQTEPRLVSKLVSLMDSPSSRVKCQATLALRNLASDTSYQLEIVRAGGLPHLVKLIQSDSIPLVLASVACIRNISIHPLNEGLIVDAGFLKPLVRLLDYKDSEEIQCHAVSTLRNLAASSEKNRKEFFESGAVEKCKELALDSPVSVQSEISACFAILALADVSKLDLLEANILDALIPMTFSQNQEVSGNAAAALANLCSRVNNYTKIIEAWDRPNEGIRGFLIRFLKSDYATFEHIALWTILQLLESHNDKVEDLVKNDDDIINGVRKMADVTFERLQRSGIDVKNPGSNNNPSSNDNNSNNNDTGSEHQPVEDASLELYNITQQILQFLH
binding result [1]: binds

Binder: B2
binding result [2]: binds

Binder: B3
binding result [2]: binds

Binder: B4
binding result [3]: binds

binding result [4]: binds | binding result [5]: binds | binding result [6]: binds | binding result [7]: binds | binding result [8]: binds
B5: tNvj1 (Nvj1 construct comprising residues 229–321) (domain or fragment, S. cerevisiae, UniProt P38881 229-321, looked up)
chain: NREKDCSSSSEVESQSKCRKESTAEPDSLSRDTRTTSSLKSSTSFPISFKGSIDLKSLNQPSSLLHIQVSPTKSSNLDAQVNTEQAYSQPFRY
